{
  "source": "paper PMC10198558",
  "about": "“CryoEM structure of a post-assembly MS-ring reveals plasticity in stoichiometry and conformation” (PLOS ONE, 2023)",
  "proteins": {"B1": {"name": "FliF (subunit of the flagellar MS-ring) (natural protein)", "chain": "MSATASTATQPKPLEWLNRLRANPRIPLIVAGSAAVAIVVAMVLWAKTPDYRTLFSNLSDQDGGAIVAQLTQMNIPYRFANGSGAIEVPADKVHELRLRLAQQGLPKGGAVGFELLDQEKFGISQFSEQVNYQRALEGELARTIETLGPVKSARVHLAMPKPSLFVREQKSPSASVTVTLEPGRALDEGQISAVVHLVSSAVAGLPPGNVTLVDQSGHLLTQSNTSGRDLNDAQLKFANDVESRIQRRIEAILSPIVGNGNVHAQVTAQLDFANKEQTEEHYSPNGDASKATLRSRQLNISEQVGAGYPGGVPGALSNQPAPPNEAPIATPPTNQQNAQNTPQTSTSTNSNSAGPRSTQRNETSNYEVDRTIRHTKMNVGDIERLSVAVVVNYKTLADGKPLPLTADQMKQIEDLTREAMGFSDKRGDTLNVVNSPFSAVDNTGGELPFWQQQSFIDQLLAAGRWLLVLVVAWILWRKAVRPQLTRRVEEAKAAQEQAQVRQETEEAVEVRLSKDEQLQQRRANQRLGAEVMSQRIREMSDNDPRVVALVIRQWMSNDHE", "notes": "FliF, flagellar M-ring protein, Salmonella enterica serovar typhimurium; Homo-oligomeric ring; 33 subunits is the most common stoichiometry (~80% of particles), 34 ~15%, 32 ~5%; No tag is mentioned; The built models cover only residues 228-438 (RBM3 and beta-collar, PDB 8FTF) and Gln-125 to Gly-227 (RBM2 inner, PDB 8FTE); also called post-assembly MS-ring; FliF protomer; source: E. coli …"}},
  "molecular_target": "the molecule itself",
  "assay": "cryo-EM structure; purified MS-rings (0.5 mg/ml) in 50 mM Tris-HCl pH 7.5, 100 mM NaCl, 0.1% LDAO on graphene oxide grids, no crosslinking; subunits counted in en-face 2D class averages without rotational symmetry averaging; 3D maps with C32, C33, C34 (RBM3), C21, C22 (RBM2 inner) and C11 symmetry",
  "note": "Several values for one entry are separate records, joined by “and”; a condition that tells them apart may be missing. Identical values can stand only once.",
  "data": [
    {"protein": "B1", "values": [
      {"measurement": "stoichiometry N", "result": "32 subunits and 33 subunits and 34 subunits"}
    ]}
  ]
}
